From the supplement of paper PMC9876800

Tested on: peptide library, one residue held at a place counted from the S/T acceptor
Assay: relative phosphorylation of the sub-library (ratio to the mean residue at this position); higher = residue favoured
Procedure, shortened: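 Spots on streptavidin membranes were phosphorimaged and quantified by densitometry to measure phosphorylation of biotinylated degenerate peptide sub-libraries by purified recombinant kinases, human or orthologue constructs. The reactions ran in 384-well plates for 90 min under kinase-specific conditions, with peptides at 50 μM and 50 μM ATP spiked with γ-32P-ATP. Relative sub-library phosphorylation is the ratio to the mean residue at that position.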

Chain of NIM1K, construct: Full length, human (Q8IY84 whole entry, looked up): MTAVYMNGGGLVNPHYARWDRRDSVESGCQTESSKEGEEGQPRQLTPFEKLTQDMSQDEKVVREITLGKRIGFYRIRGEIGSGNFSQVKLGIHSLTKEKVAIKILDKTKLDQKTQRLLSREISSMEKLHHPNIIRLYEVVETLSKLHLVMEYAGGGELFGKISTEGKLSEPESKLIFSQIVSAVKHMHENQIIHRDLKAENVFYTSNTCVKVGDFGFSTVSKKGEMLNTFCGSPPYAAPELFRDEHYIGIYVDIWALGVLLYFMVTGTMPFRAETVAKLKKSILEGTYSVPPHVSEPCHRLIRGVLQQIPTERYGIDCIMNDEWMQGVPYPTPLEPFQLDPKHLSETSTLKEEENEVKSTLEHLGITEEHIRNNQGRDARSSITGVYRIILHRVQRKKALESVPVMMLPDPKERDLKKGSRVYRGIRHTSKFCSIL
Chain of MAPK13, construct: Full length, human (O15264 whole entry, looked up): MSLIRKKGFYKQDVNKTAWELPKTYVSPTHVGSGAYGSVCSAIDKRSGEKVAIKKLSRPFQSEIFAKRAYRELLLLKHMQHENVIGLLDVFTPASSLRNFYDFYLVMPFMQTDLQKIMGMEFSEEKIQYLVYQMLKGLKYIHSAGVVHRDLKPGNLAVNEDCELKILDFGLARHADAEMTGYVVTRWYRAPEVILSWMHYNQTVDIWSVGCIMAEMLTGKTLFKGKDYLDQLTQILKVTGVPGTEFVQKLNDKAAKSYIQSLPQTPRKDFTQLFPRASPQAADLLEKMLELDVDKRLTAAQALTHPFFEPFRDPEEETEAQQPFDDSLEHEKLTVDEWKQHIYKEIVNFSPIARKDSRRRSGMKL

NIM1K, construct: Full length, human (from UniProt Q8IY84)
relative phosphorylation
Conditions | at +1 | at +2 | at +3 | at +4 | at -1 | at -2 | at -3 | at -4 | at -5
A fixed | 1.02 | 1.1 | 0.686 | 0.823 | 1.14 | 1.35 | 0.839 | 1.14 | 1.43
D fixed | 0.328 | 0.286 | 1.08 | 0.716 | 0.362 | 0.331 | 0.475 | 0.831 | 0.765
E fixed | 0.455 | 0.311 | 0.495 | 0.844 | 0.331 | 0.307 | 0.502 | 0.762 | 0.602
F fixed | 1.17 | 1.55 | 1.46 | 0.97 | 0.571 | 1.7 | 0.769 | 0.709 | 0.63
G fixed | 0.75 | 0.407 | 0.548 | 0.799 | 3.74 | 1.27 | 0.883 | 1.33 | 1.12
H fixed | 0.924 | 0.848 | 1.15 | 0.801 | 0.966 | 1.15 | 1.06 | 1.06 | 1.26
I fixed | 0.801 | 1.32 | 0.626 | 1.37 | 0.503 | 0.705 | 0.681 | 0.749 | 0.778
K fixed | 0.686 | 0.545 | 0.552 | 1.12 | 1.37 | 1.03 | 1.21 | 1.57 | 1.73
L fixed | 0.975 | 1.52 | 1.15 | 1.98 | 0.818 | 0.932 | 0.84 | 0.958 | 0.869
M fixed | 1.83 | 1.3 | 0.82 | 1.31 | 0.926 | 0.997 | 0.966 | 0.956 | 0.781
N fixed | 0.722 | 0.496 | 1.12 | 0.697 | 0.842 | 1.06 | 0.797 | 1.25 | 1.2
P fixed | 0.376 | 0.51 | 0.404 | 0.722 | 0.76 | 0.361 | 0.823 | 0.87 | 0.852
Q fixed | 2.16 | 0.607 | 0.549 | 0.795 | 1.05 | 0.737 | 0.887 | 0.935 | 0.868
R fixed | 1.05 | 0.633 | 0.666 | 1.24 | 1.44 | 1.38 | 3.47 | 1.41 | 1.41
V fixed | 1.2 | 1.48 | 0.645 | 1.42 | 0.693 | 0.888 | 0.872 | 0.712 | 0.917
W fixed | 1.16 | 2.06 | 3.85 | 0.717 | 0.709 | 1.7 | 0.97 | 0.863 | 1.04
Y fixed | 1.39 | 2.04 | 1.19 | 0.686 | 0.775 | 1.1 | 0.957 | 0.884 | 0.758
pThr fixed | 0.564 | 0.357 | 0.387 | 0.81 | 0.341 | 0.522 | 0.655 | 0.711 | 0.72
pTyr fixed | 0.365 | 0.345 | 0.367 | 0.644 | 0.459 | 0.475 | 0.619 | 0.629 | 0.543

MAPK13, construct: Full length, human (from UniProt O15264)
relative phosphorylation
Conditions | at +1 | at +2 | at +3 | at +4 | at -1 | at -2 | at -3 | at -4 | at -5
A fixed | 0.304 | 0.921 | 1.42 | 1.32 | 1.31 | 1.25 | 1.26 | 1.2 | 1.3
D fixed | 0.162 | 0.572 | 1 | 1.09 | 1.11 | 0.486 | 1.09 | 1.46 | 1.26
E fixed | 0.123 | 0.497 | 1.07 | 0.846 | 0.937 | 0.434 | 1.21 | 1.39 | 1.34
F fixed | 0.148 | 0.663 | 0.413 | 1.06 | 0.768 | 0.457 | 1.04 | 0.933 | 0.923
G fixed | 0.975 | 1.31 | 1.13 | 1.39 | 0.948 | 0.896 | 1.64 | 1.16 | 1.33
H fixed | 0.143 | 0.694 | 0.936 | 0.884 | 0.927 | 0.405 | 0.773 | 0.879 | 1.05
I fixed | 0.172 | 1.27 | 0.948 | 1.02 | 0.529 | 1.52 | 0.912 | 1.02 | 0.923
K fixed | 0.148 | 0.751 | 0.57 | 0.665 | 0.681 | 0.25 | 0.522 | 0.662 | 0.855
L fixed | 0.208 | 1.27 | 1.08 | 0.988 | 1.24 | 2.47 | 0.884 | 1.05 | 0.974
M fixed | 0.182 | 1.04 | 0.659 | 1.28 | 1.77 | 1.49 | 1.14 | 1.22 | 1.16
N fixed | 0.16 | 0.438 | 0.64 | 0.849 | 0.782 | 0.512 | 0.815 | 0.983 | 1.1
P fixed | 12.9 | 1.05 | 2.58 | 0.942 | 2.31 | 3.75 | 1.08 | 0.999 | 0.962
Q fixed | 0.613 | 0.805 | 0.853 | 0.754 | 1.15 | 0.554 | 0.999 | 1.04 | 0.915
R fixed | 0.171 | 1.4 | 0.715 | 0.559 | 0.698 | 0.353 | 0.542 | 0.653 | 0.792
V fixed | 0.353 | 2.28 | 1.18 | 1.41 | 0.635 | 1.53 | 1.24 | 0.939 | 0.652
W fixed | 0.126 | 0.88 | 1.01 | 0.868 | 0.486 | 0.279 | 0.837 | 0.745 | 0.721
Y fixed | 0.14 | 1.16 | 0.791 | 1.07 | 0.711 | 0.36 | 1.02 | 0.665 | 0.735
pThr fixed | 0.158 | 1.67 | 0.939 | 0.853 | 0.309 | 0.376 | 1.14 | 1.49 | 1.7
pTyr fixed | 0.126 | 0.994 | 0.837 | 0.652 | 0.729 | 0.339 | 1.07 | 1.38 | 1.19

DYRK1A, construct: aa147-185, human (from UniProt Q13627)
relative phosphorylation
Conditions | at +1 | at +2 | at +3 | at +4 | at -1 | at -2 | at -3 | at -4 | at -5
A fixed | 0.555 | 0.855 | 0.76 | 0.819 | 1.27 | 1.63 | 0.864 | 0.989 | 0.962
D fixed | 0.289 | 0.642 | 0.666 | 0.794 | 0.556 | 0.35 | 0.461 | 0.768 | 0.695
E fixed | 0.286 | 0.461 | 0.598 | 0.768 | 0.59 | 0.348 | 0.372 | 0.879 | 0.674
F fixed | 0.557 | 1.42 | 1.41 | 1.97 | 0.736 | 0.452 | 0.417 | 0.814 | 1.06
G fixed | 0.692 | 1.03 | 1 | 1.09 | 0.983 | 0.826 | 1.08 | 1.06 | 1.1
H fixed | 0.506 | 1.23 | 1.37 | 1.07 | 1.13 | 0.589 | 0.674 | 1.01 | 1.2
I fixed | 0.488 | 1.4 | 0.957 | 1.01 | 0.726 | 0.605 | 0.387 | 0.928 | 1
K fixed | 0.631 | 0.679 | 0.626 | 0.801 | 1.31 | 0.712 | 0.739 | 1.1 | 1.05
L fixed | 0.463 | 1.6 | 1.36 | 1.04 | 0.887 | 0.785 | 0.467 | 0.936 | 0.92
M fixed | 0.554 | 1.29 | 1.24 | 1.23 | 1.21 | 0.659 | 0.456 | 0.964 | 0.918
N fixed | 0.471 | 0.79 | 0.789 | 0.893 | 0.849 | 0.641 | 0.5 | 0.871 | 0.876
P fixed | 8.74 | 0.803 | 1.94 | 0.87 | 1.87 | 4.42 | 0.564 | 1.04 | 1.16
Q fixed | 0.475 | 0.721 | 0.882 | 0.861 | 0.998 | 0.608 | 0.618 | 0.891 | 0.95
R fixed | 0.783 | 0.811 | 0.725 | 0.714 | 1.46 | 2.63 | 8.09 | 2.1 | 1.73
V fixed | 0.537 | 1.27 | 0.761 | 0.86 | 0.907 | 0.805 | 0.366 | 0.726 | 0.767
W fixed | 0.54 | 0.941 | 1.03 | 1.23 | 0.708 | 0.486 | 0.497 | 0.934 | 0.814
Y fixed | 0.432 | 1.06 | 0.877 | 0.976 | 0.815 | 0.454 | 0.444 | 1 | 1.13
pThr fixed | 0.379 | 0.562 | 0.556 | 0.773 | 0.374 | 0.487 | 0.391 | 0.789 | 0.805
pTyr fixed | 0.441 | 0.547 | 0.598 | 0.87 | 0.612 | 0.419 | 0.45 | 0.782 | 0.791
